In test [1] the target is T1, MAGI2-2, second PDZ domain of MAGI2 (human, UniProt Q86UL8 426-510).
T1 construct: not shown: His6, N-terminal, kept; MBP, N-terminal, kept
Nature of the test: fluorescence polarisation; direct: N-terminally fluorescein-labelled PBM peptide (tracer) with increasing amounts of MBP-PDZ; 384-well plates; triplicate; direct binding model (ProFit). The conditions noted are these: both partners purified.

Another test concerns the target T2, SYNJ2BP PDZ domain (human, UniProt P57105 13-100).
T2 sequence (looked up): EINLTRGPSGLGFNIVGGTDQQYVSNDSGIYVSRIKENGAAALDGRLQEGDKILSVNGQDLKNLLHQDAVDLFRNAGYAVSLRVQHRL
The test is described as above. Conditions: both partners purified.

The target in test [2] is T3, NHERF3-1, first PDZ domain of NHERF3 (human, UniProt Q5T2W1 9-90).
T3 sequence (looked up): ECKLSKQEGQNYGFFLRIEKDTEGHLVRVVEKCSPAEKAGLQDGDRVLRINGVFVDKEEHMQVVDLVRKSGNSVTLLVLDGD
The test is described as above. The conditions noted are these: both partners purified.

In test [3] the target is MAGI1-2, second PDZ domain of MAGI1 (human, UniProt Q96QZ7 472-554). The description is as above. Conditions: both partners purified.
MAGI1-2, second PDZ domain of MAGI1, sequence (Q96QZ7 472-554): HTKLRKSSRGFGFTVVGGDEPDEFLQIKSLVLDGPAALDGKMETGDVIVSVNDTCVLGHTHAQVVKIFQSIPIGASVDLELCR
Test [4] has as its target T4, PDZRN3-1, first PDZ domain of PDZRN3 (human, UniProt Q9UPQ7 249-339).
T4 sequence (looked up): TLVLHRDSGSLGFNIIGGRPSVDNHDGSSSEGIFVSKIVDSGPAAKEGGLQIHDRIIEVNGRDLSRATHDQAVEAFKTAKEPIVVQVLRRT
The test is described as above. The conditions noted are these: both partners purified.

Test [5] addresses T5, PDZRN4-1, first PDZ domain of PDZRN4 (human, UniProt Q6ZMN7 224-314).
T5 sequence (looked up): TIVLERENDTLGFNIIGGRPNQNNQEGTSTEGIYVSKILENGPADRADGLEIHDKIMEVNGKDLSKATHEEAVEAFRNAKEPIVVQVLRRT
Described as above. The conditions noted are these: both partners purified.

Test [6] concerns the target DLG4-3, third PDZ domain of DLG4 (human, UniProt P78352 313-393). The description is as above. Conditions: both partners purified.
For test [7], the target named is T6, SCRIB-3, third PDZ domain of SCRIB (human, UniProt Q14160 1004-1093).
T6 sequence (looked up): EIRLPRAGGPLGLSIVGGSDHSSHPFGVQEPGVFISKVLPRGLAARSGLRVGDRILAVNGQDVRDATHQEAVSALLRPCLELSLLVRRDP
The description is as above. The conditions noted are these: both partners purified.

The next test has as its target T7, MAGI2-2 (human, UniProt Q86UL8 426-510).
T7 construct: PDZ domain number 2 of human MAGI2; also called MAGI2 PDZ dom 2; source: E. coli, in crude cell lysate; not shown: His, N-terminal, kept
Nature of the test: holdup assay; biotinylated PBM peptide saturating streptavidin resin (biotin resin as reference); tag-PDZ at 4 uM in crude E. coli lysate, 15 min, filtration, free tag-PDZ by capillary electrophoresis; singlicate; BI cut-off 0.20; BI converted into KD with the peptide concentration back-calculated from FP. Conditions: one partner purified.

The target of the next test is T8, MAGI2-3 (human, UniProt Q86UL8 605-683).
T8 construct: PDZ domain number 3 of human MAGI2; also called MAGI2 PDZ dom 3; source: E. coli, in crude cell lysate; not shown: His, N-terminal, kept
T8 sequence (Q86UL8 605-683): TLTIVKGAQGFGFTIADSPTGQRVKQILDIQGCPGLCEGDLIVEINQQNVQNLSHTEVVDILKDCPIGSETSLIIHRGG
The test is described as above. Conditions: one partner purified.

The target of another test is T9, MAGI3-2 (human, UniProt Q5TCQ9 410-492).
T9 construct: PDZ domain number 2 of human MAGI3; also called MAGI3 PDZ dom 2; source: E. coli, in crude cell lysate; not shown: His, N-terminal, kept
T9 sequence (Q5TCQ9 410-492): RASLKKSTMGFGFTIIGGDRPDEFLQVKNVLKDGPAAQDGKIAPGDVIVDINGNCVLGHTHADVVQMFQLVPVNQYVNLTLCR
The description is as above. The conditions noted are these: one partner purified.

A further test addresses T10, NHERF2-1 (human, UniProt Q15599 11-90).
T10 construct: PDZ domain number 1 of human NHERF2; also called NHERF2 PDZ dom 1; source: E. coli, in crude cell lysate; not shown: His, N-terminal, kept
The description is as above. The conditions noted are these: one partner purified.

In a further test the target is T11, NHERF2-2 (human, UniProt Q15599 150-230).
T11 construct: PDZ domain number 2 of human NHERF2; also called NHERF2 PDZ dom 2; source: E. coli, in crude cell lysate; not shown: His, N-terminal, kept
T11 sequence (Q15599 150-230): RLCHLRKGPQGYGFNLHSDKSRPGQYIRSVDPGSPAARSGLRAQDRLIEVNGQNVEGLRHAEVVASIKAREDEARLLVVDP
The description is as above. Conditions: one partner purified.

In another test the target is T12, PARD3-3 (human, UniProt Q8TEW0 590-677).
T12 construct: the text says PARD3-1; also called PARD3 PDZ dom 3; source: E. coli, in crude cell lysate; not shown: His, N-terminal, kept
T12 sequence (Q8TEW0 590-677): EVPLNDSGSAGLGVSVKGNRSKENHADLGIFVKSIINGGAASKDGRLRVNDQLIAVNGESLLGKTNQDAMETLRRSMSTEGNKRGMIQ
The test is described as above. The conditions noted are these: one partner purified.

A further test deals with T13, PTPN13-2 (human, UniProt Q12923 1368-1452).
T13 construct: PDZ domain number 2 of human PTPN13; also called PTPN13 PDZ dom 2; source: E. coli, in crude cell lysate; not shown: His, N-terminal, kept
T13 sequence (looked up): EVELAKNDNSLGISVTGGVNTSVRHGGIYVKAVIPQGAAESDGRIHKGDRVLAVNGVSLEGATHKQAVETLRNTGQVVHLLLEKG
The description is as above. The conditions noted are these: one partner purified.

A further test deals with T14, PTPN13-4 (human, UniProt Q12923 1788-1868).
T14 construct: PDZ domain number 4 of human PTPN13; also called PTPN13 PDZ dom 4; fourth PDZ domain of PTPN13; source: E. coli, in crude cell lysate; not shown: His, N-terminal, kept
T14 sequence (looked up): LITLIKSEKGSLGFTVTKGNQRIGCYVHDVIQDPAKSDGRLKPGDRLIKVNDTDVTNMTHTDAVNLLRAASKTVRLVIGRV
Described as above. Conditions: one partner purified.

For the next test, the target named is T15, DLG1-2 (human, UniProt Q12959 319-405).
T15 construct: PDZ domain number 2 of human DLG1; also called DLG1 PDZ dom 2; source: E. coli, in crude cell lysate; not shown: His, N-terminal, kept
The test is described as above. Conditions: one partner purified.

Another test deals with T16, MAGI1-3 (human, UniProt Q96QZ7 643-721).
T16 construct: PDZ domain number 3 of human MAGI1; also called MAGI1 PDZ dom 3; source: E. coli, in crude cell lysate; not shown: His, N-terminal, kept
T16 sequence (Q96QZ7 643-721): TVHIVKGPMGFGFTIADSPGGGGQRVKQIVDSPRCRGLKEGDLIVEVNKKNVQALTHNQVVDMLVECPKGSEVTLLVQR
The test is described as above. The conditions noted are these: one partner purified.

Where no end group is shown, it is not given here. The star is where a group is joined. Biotin = O=C1N[C@H]2[C@H](CS[C@H]2CCCCC(=O)*)N1; TTDS = NCCCOCCOCCOCCCNC(=O)CCC(=O)*

T10 sequence (Q15599 11-90): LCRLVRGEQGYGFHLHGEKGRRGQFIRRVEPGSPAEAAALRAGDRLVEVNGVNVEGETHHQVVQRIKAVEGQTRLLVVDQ
T1 sequence (Q86UL8 426-510): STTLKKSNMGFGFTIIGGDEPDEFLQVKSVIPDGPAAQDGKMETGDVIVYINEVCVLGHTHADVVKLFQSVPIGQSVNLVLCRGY
T7 sequence (Q86UL8 426-510): as above
DLG4-3, third PDZ domain of DLG4, sequence (P78352 313-393): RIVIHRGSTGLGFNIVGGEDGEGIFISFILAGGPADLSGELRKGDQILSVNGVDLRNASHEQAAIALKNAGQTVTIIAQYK

Regarding fluorescein-RTRRETQL (source: synthetic peptide) [f16E6, fluorescein-labelled HPV16 E6 PBM peptide], the Kd came out at 2.77 µM in test [1]; 2.28 µM with SYNJ2BP PDZ domain; 2.34 µM in test [2]; 0.5 µM in [3]; 1.08 µM in test [4]; 2.93 µM in test [5]. Besides, the Kd in [6] amounted to 7.27 µM; in [7], 1.47 µM.

B1: PTEN_13 (peptide, UniProt P60484 391-403, looked up)
peptide: {Biotin-TTDS}-PFDEDQHTQITKV
notes: also called 13-mer PTEN peptide; extended wild-type peptide; source: synthetic peptide, bought: JPT Innovative Peptide Solutions (70%-80% purity)
For the molecule B1, the Kd with MAGI2-2 is 149 µM; with MAGI2-3, 30 µM; with MAGI3-2, 21 µM; in the test with NHERF2-1, 134 µM; in the test with NHERF2-2 it was 125 µM; in the test with PARD3-3 it was 96 µM. Also, the Kd in the test with PTPN13-2 is 16 µM; in the test with PTPN13-4 it was 36 µM; with DLG1-2 it was 81 µM; with MAGI1-3, 10 µM.

What is called Kd is the free concentration of one partner at which half of the binding sites on the other are occupied at equilibrium, for simple one-to-one binding.
